Entries after “also recorded” stand apart in the source; their conditions may differ.
Assays:
eNOS expression = eNOS expression by Western blot in ACE cells; assay type: cell-based, bovine
Description: At the end of incubation, total cell lysates were prepared, and eNOS protein levels were determined by Western blot analysis.
Bovine adrenal cortex capillary endothelial cells (ACE) were prepared and maintained as previously described (Ferrara et.al., 1989 Biochem. Biophys. Res. Commun. 161:851–858). Briefly, cells were plated onto 6-well tissue culture plates (Costar) and grown in low glucose Dulbecco's modified Eagle's medium, supplemented with 2 mM […] (Life Technologies), 10% bovine calf serum (HyClone Lab., Inc.) and 100 μg/ml Penicillin/Streptomycin (Life Technologies). ACE cells were used between passages 4 and 8.
Medium was changed every 24 hours.
The methods for cell lysis and Western blot (WB) have been described in Shen et al., 1998 J. Biol. Chem. 273:29979–29985. A monoclonal anti-eNOS antibody was used at 1:2500 to probe eNOS protein. […] The protein bands were scanned by a densitometer and the relative intensities were quantified using IMAGEQUANT® software (Molecular Dynamics).
Confluent ACE cells were incubated with 500 pM rhVEGF. […] Equal amounts of protein were denatured under reducing conditions and separated in a 10% Novex mini gel and transferred to PVDF membrane. eNOS protein signals were visualized by ECL and quantified using densitometry.

KDR receptor = KDR receptor (Homo sapiens, UniProt P35968); experiment: KDR receptor binding ELISA (inhibition of biotinylated native VEGF (8-109) binding); details: second figure of the cell, ratio to native VEGF (8-109)
Description: Receptor binding assays were performed in 96-well immunoplates (Maxisorp, Nunc-Immunoplate, Nalge Nunc International, Rochester, N.Y.). Each well was coated with 100 μl of a solution containing 8 μg/ml of a monoclonal antibody to KDR known as MAKD5 (Genentech, South San Francisco, Calif.) in 50 mM carbonate buffer at pH 9.6 and incubated at 4° C. overnight. The supernatant was discarded, the wells were washed three times in washing buffer (0.05% Tween 20 in PBS), and the plate was blocked (150 μl per well) with block buffer (0.5% BSA, 0.01% thimerosal in PBS) at room temperature for one hour. The supernatant was discarded, and the wells were washed.
Aliquots of this mixture (100 μl) were added to the precoated microtiter wells and the plate was incubated for 1 hour at room temperature. […] The wells were then incubated with 3, 3′, 5,5′-tetramethyl benzidine (0.2 gram/liter; Kirkegaard & Perry Laboratories, Gaithersburg, Md.) for about 10 minutes at room temperature. Absorbance was read at 450 nm on a Vmax plate reader (Molecular Devices, Menlo Park, Calif.).
Titration curves were fit with a four-parameter nonlinear regression curve-fitting program (KaleidaGraph, Synergy Software, Reading, Pa.).

Flt-1 receptor = Flt-1 receptor (Homo sapiens, UniProt P17948); experiment: RIA binding assay, FLT-1 receptor; details: relative to Native VEGF 165
Source text: The results are shown below in Table 6.

Sequence of Flt-1 receptor (P17948 27-1338): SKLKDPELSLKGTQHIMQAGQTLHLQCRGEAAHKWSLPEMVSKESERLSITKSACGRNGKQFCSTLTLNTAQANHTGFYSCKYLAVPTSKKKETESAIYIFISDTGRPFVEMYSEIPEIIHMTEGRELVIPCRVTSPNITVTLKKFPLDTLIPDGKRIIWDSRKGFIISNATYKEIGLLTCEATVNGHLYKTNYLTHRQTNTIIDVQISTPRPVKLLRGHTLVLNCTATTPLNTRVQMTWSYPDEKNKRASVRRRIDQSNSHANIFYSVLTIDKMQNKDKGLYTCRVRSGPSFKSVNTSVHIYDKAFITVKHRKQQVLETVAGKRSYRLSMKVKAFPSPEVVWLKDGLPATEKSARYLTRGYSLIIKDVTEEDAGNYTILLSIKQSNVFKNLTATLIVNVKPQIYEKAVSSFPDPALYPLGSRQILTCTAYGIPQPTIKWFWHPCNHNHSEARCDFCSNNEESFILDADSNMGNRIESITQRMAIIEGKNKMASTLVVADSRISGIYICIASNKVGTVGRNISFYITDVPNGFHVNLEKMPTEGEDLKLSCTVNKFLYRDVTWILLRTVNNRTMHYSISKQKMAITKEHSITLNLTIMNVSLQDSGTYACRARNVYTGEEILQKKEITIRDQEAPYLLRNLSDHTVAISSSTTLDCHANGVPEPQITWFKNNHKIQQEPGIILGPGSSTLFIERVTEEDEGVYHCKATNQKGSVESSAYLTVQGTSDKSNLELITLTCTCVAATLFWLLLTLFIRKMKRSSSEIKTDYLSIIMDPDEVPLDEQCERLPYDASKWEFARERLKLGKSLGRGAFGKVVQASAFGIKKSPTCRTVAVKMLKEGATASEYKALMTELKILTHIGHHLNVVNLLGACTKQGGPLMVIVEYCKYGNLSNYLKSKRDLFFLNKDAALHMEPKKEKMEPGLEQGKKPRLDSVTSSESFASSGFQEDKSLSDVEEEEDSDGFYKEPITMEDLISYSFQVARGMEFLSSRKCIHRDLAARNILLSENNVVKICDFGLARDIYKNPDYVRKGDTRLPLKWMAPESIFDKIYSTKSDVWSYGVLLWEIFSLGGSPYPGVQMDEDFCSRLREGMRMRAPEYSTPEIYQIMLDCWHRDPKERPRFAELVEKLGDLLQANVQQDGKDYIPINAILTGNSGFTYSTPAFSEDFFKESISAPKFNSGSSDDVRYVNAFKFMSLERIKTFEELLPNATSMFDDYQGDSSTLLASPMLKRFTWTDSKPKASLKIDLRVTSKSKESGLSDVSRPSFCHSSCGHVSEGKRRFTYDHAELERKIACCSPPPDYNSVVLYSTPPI
Sequence of KDR receptor (P35968 20-327 limits assumed): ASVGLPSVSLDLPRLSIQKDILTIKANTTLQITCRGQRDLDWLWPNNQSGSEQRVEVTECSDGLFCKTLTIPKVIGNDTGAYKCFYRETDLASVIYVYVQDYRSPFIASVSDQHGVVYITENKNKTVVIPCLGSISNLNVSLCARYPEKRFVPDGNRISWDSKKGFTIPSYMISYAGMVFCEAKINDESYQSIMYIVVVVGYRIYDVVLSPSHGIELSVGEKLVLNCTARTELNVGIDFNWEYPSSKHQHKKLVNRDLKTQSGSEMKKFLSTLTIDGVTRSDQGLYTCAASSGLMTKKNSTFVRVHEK

B1: PLGF: recombinant human placental growth factor (protein, UniProt P49763 19-221, looked up)
Placenta growth factor: LPAVPPQQWALSAGNGSSEVEVVPFQEVWGRSYCRALERLVDVVSEYPSEVEHMFSPSCVSLLRCTGCCGDENLHCVPVETANVTMQLLKIRSGDRPSYVELTFSQHVRCECRHSPGRQSPDMPGDFRADAPSFLPPRRSLPMLFRMEWGCALTGSQSAVWPSSPVPEEIPRMHPGRNGKKQQRKPLREKMKPERCGDAVPRR
- eNOS expression with VEGF forms and receptor-selective variants (eNOS expression; equal concentrations, two days): had no effect; also recorded: did not

B2: LK-VRB-1s*: VEGF (1-109) variant, M18E/Y21L/Q22R/Y25S (protein)
chain: APMAEGGGQNHHEVVKFEDVLRRSSCHPIETLVDIFQEYPDEIEYIFKPSCVPLMRCGGCCNDEGLECVPTEESNITMQIMRIKPHQGQHIGEMSFLQHNKCECRPKKD
- Relative Binding Affinity KDR Receptor (KDR receptor): 1 nM/1
- Relative Binding Affinity FLT-1 Receptor (Flt-1 receptor): 14,000

B3: TGF-beta2: recombinant human transforming growth factor (protein, UniProt P61812 303-414, looked up)
Transforming growth factor …: ALDAAYCFRNVQDNCCLRPLYIDFKRDLGWKWIHEPKGYNANFCAGACPYLWSSDTQHSRVLSLYNTINPEASASPCCVSQDLEPLTILYYIGKTPKIEQLSNMIVKSCKCS
modifications: Transforming growth factor beta-2
- eNOS expression with angiogenic factors (eNOS expression; 500 pM, 2 days): reduced endogenous eNOS expression
